Measurements taken from a protein production outcome set (Wang et al. 2014).

Experiment: label from the status in PepcDB records
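Also: failed if final PepcDB status was selected cloned or expressed and not failed if soluble or beyond.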

Which protein production does the source give for “MVHCADQGMARAARDLAGALIASSAVLYNQFDAWSRSHAAALEAVRRGGDTEGEAWLLTGLGQLRYEQDKFEESYAYFADALRLFDERGDVPRGAALSLAGMGSARREQARFAEALQLLSSALERYEQTDDVGARARVLYGIGYVHREQGRGAQAWEALSGALGLYRTASDRHGEALTLRSLALCRRADGAWADAERLLHEALRIFVGLQDTFGVMYTEQSLAKVELRRGHLEKARERLGRCLEVARERQDRFGEALVLRTLGEWCLAAGETERAREPLERALAAWEALDLPLWGARTAWDLAEVSASRATNRRRGQPARRRWRPSARWTAGRRGSARTKACRTR” here?
Its protein production is “failed”.

For “MVHDSALPFDALPMPPQGREGFEECPYLDSQWVADTNGQRMTGQGVDTRFDTPACVFWSYPEAPQATVMVRHMPSEEEAIRVVDWAAPIDTTEPAEEPDGWSGGRAGHEEGAVYAVQKGPVAVVVWSNQQQSLKAELMAKEAIARLGL”, which protein production is on record?
Its protein production is “not failed”.

With “MVHDTFMKMPEVRRRRQPTHVLVAGGNQGLGNMTAFLRAARTSTLFRYSVLCGANKQLYHEIASWQLPHIRPLPYINSPEEMNQLYDEADAVITKPGGVTISELLHKRIPIFTIDCLPGQERINWQYLRRNGLIYHLAEPGNGERKMIRLLTDDVEKNRFFRRVSDYFAGVEKTGLEHHHHHH” as the sequence, how does the protein production read?
Its protein production is “failed”.

For “MVILEQTHLVKNKAVDNKKSMKYSIFQQALTIAVILLISKIIESFMPIPMPASVIGLVLLFIALCTGIVKLGQVETVGTALTNNIGFLFVPAGISVINSLPILKQSPILIILLIIISTLLLLICTGFSSQLLVTKSLFPSKEKNEETSHIGG”, which protein production is on record?
The protein production was “failed”.

For “MVINSTVWQCEATGKENLTYEEAVKSERAARKKMEQFKQSLRAPVLLVVEHAQQSAVNTLNMIVAKFLRKRYFIGEEVSVQAKKNATYTVLGVKLDKNMPEPLNGIYEDTDNLVYRLRPNKGDPSAELDLPFRQLRRSRMEFNLENLSMFIKSNVSRVDGLLRPKPEA”, which protein production is on record?
The protein production was “failed”.

For “MVKDKQKAIFSENLNSYIAKSEKTQLEIAKSIGVSPQTFNTWCKGIAIPRMGKVQALADYFNINKSDLIEDKKLNIDTVPIESGYTIPVLGRVAAGYGKEAVEEVIGQIEISPSMAAKGDYFGLLIKGDSMIPTLYDGDTVIVERTDDAESGDLVIALVNGSDATCKRLQKYAEGIALIPQNPVYEPMRFTESEIDTTPVKILGKVVEMRRKFLEHHHHHH”, which protein production is on record?
Its protein production is “not failed”.

For “MVKLELLKQSDASALLKFELNNKEWFESFIEARDDDFFDDNGIKEHVNFCLAEYKKGLLYPTLIKDEDGQILGRANLYNIDRVKNSGSIGYRIGEEFTSQGLATLATKELLEIGKNRYELSSINAVASTDNAASQKVLIKNGFKEVGFKPEFAFVDGEIIDCYEYRCLIQQLTPVM”, which protein production is on record?
The protein production was “failed”.

Which protein production does the source give for “MVKMIEQLKRSFAVAKKDMLIFYLKGPVIIMGLIFPFFLFLAFFIGRNLEKAQLFTALISMTAFFTSTAVGPTIIPWECRGRTFERLITAPVSLTTVLLGDLQASFYFGTAITFIISTVAIFILSIRPNLQIFLVATILAILTFSAMTILMSSYPPTDVPADIMMLSSLVKFSLLFISGIFVPLKDLPKYARWISYASPLTYYVDALRNSLGDGCLPLWIDFGMLALFGILFFLSGVAIHKKVLERRFT” here?
The protein production was “failed”.

With “MVKMKKVEQLSSHLYLIDDFDLQHNERTGTYVLLGDDITLIETCAAPSLPYILDGLQQLHIDLNEVKNIIVTHVHLDHAGAAGLMMEKCPNATLYVHSRGARHMIDPTKLILGAKAVYKEDFDKLFDPILPIEEERVHIVQHGDTLQIAEDRILTFYDTPGHAKHHISIHDSLTNGIFTGDTIGIYYRELADLGVELYLPSTSPSQFQPDAMIASKNHIQSMNVDTIYFGHYGASSNVTEVYKQLEHWLPIFVHTGKEVFEKYNDFDEATKALQTILMDKISSHLIKLNVPSDHSVYNILHLDIEISAMGIIDYFTKLEKTNPPIS” as the sequence, how does the protein production read?
Its protein production is “failed”.

Which protein production does the source give for “MVKNEVLMRVAELLKHRAENLVKHTEFKQWMSPSVREYWDDILNKTQSRPLFGWVKDLHLPANEDTPIPEPIELKPEAQALYDELQTQVGEVIHTGDWLLVDQERINQFGAVTEDMQWIHTNPDRAALESPFKTTIAHGFLTLALLPKLTDSVDEEKTLFPTAKMVVNIGLNSVRFPYPVKAGNRVRAVSTLSKVTPIKKGLEIEREIKVEIEGVRRPGCVVVSVIQLHF” here?
The protein production was “failed”.

For “MVKRTSHKQASCPVARPLDVIGDGWSMLIVRDAFEGLTRFGEFQKSLGLAKNILAARLRNLVEHGVMVAVPAESGSHQEYRLTDKGRALFPLLVAIRQWGEDYFFAPDESHVRLVERDSGQPVPRLQVRAGDGSPLAAEDTRVSRD”, which protein production is on record?
Its protein production is “not failed”.

Which protein production does the source give for “MVKTAVLMATYNGEIFISEQLDSIRQQTLKPDYVLLRDDCSTDETVNVVNNYIAKHELEGWKIVKNDKNLGWRLNFRQLLIDVLAYEVDYVFFSDQDDIWYLDKNERQFAIMSDKPQIEVLSADVDIKTMSTEASVPHFLTFSSSDRISQYPKVYDYQTFRPGWTIAMKRDFAQAIADNWTFGANISHDNLIETTASIIGNGYNLNESVGVHIRYGGNASGNSKFVLNWKSPKTQHITGLKTFVDFYETMQKVVNKYQNDVALNQRLAFEKERLEASKLSLIHNSAFVIKNWRLYNSNSGRMRDLLFAFKKLEHHHHHH” here?
Its protein production is “not failed”.

Which protein production does the source give for “MVKTKKEDLNQFLIPRLNTIYETLQLFDGTASPTVERVNWNDVLQMSDHLSKQATIVGMLWTGESPKADSLKETMESYFNALQGFLLCCHGSTLGAGPTLSSIIHVSVKQIVDSSFRLLQGSVSLYEGSYEKDKKPSIPQLSGVVWEACSSFKKVPATNITAIGRAITQVAVSMKDVLREMKEVKPACPLSECEASGDNMSSDDDDDDDLGDDLSPEEMEVATMVTEIVSETIMVIKELIRVITGMIKMENPKDNSGFVESLEKLLKLCQGTGVQIDELGACVYPPQEMNKMKQTVKVIQGNLDEFETEVERLKSSSDGFSGACGKLRNSLKHMETELDKRCEAELVVEMQNVTLDS” here?
Its protein production is “failed”.

Which protein production does the source give for “MVLARAPEPHGGGNRLNSATMRVYLGKTHKHPHQNRRHTVSDISDYIVSHFKRSSREIGEVERRILELSHQKKLVSSDINAEFSAGASLGDRLADNIAKVGGSWGFILSFCFFLIFWAIINTIVLTTRAFDPYPFIFLNLLLSMLAAIQAPIIMMSQNRQAARDRFEAAKDYEVNLKAELEVLSLHEKIDVKVLAELAALRQDIAAIHHHVTRKDD” here?
Its protein production is “failed”.

Which protein production does the source give for “MVLHVMLGEVVTKFLNMNNGVGEGGSQQRELHGKRKLFRGNDFAFSIARMAVAQICESVEVNPYQESQTREGVRFSSFQESALDTLTDVAVQYIQSIGKTAHLYANLAGRVDGNSLDILQALEDLGSGLGFAGVSDTDHCLADSGVVKDIIRYTGEAEEIPFVYSLPRFPFSKEKKPAPSFSEVGAEPPDEHIPVWLPAFPETELCDRSEETNAATIEGEIPSKENGSSLPSMQLSFDGGGRLEIHKSSKDVGESTEAVVEGNLFLTAPLRFVEKNVSPVVRPLELSNEVVRTNHVPDKHVRNNHHIPILEASAPSDKINNKNWLAISKDVEKVDVARKELTLVRFKIGTTKRSMCLAKNRSFQEEGWFQEGEDKREKTSEIKEKRERIDSQLSTQM” here?
The protein production was “failed”.

For “MVLIGTVVNGAAIVIAALIGLLVKNIPERVKTTLMQAIGLAIVLLGVKMGLQTEQFLIVICSLVIGGVIGEMINLEKRLDHLGRWIESKVGGKKDGSIATAFVTTTLIYVVGAMAVLGALDSGLRGDHSVLLTKALLDGFLAILFTSTLGIGVLFSAIPVVLYQGSIALFASQIDQYVPTALMDSFITEMSATGGVMIVAIGLNLLNVVNIRVANLLPSLVIVAVLVTFVYKGFPF”, which protein production is on record?
Its protein production is “failed”.

With “MVLTLDLADPAQPEHVFIVEDSRGATELKLYKSHYTIGKADSCDIRLHSIYASRQHATLVRFLTENGEVRYRLIDGDPETSRRSANGTYVNNRSITECDLKHYDQILFGADVKATYFYLSPQFRSLEHHHHHH” as the sequence, how does the protein production read?
Its protein production is “not failed”.

With “MVLTSGAGASLVLLNTFSEIYMRISTRVIGGALIATLLTQLTACGTIFYPDRRGQIGGKIDPVVAAMDAIGILFYVIPGLIAFGIDFATGAIYYPGGRTAQVDPAKLQEAVSPDGKVDNLKLQAILESELGQRLPLNDPRLIQHRGSIEQLASLGLVPAA” as the sequence, how does the protein production read?
Its protein production is “failed”.

For “MVMIMELLYAITAFILGMLHALEPGHGKSVVAAYILGTKADLKDAILLGTTITISHTAVIFLLGILSIYLLESLNVDVVHDMMSVVGGLILIAVGIWIIRSYLHPHEHKVDTKKGVITLGLSAGLVPCPAALAVLLLSISSGNLIDGLIYVAIFSIGLAISLTGLAVAFVESKELIKKYVGNRKVSKLPLISGSIIILIGLYTIAHPILEHAIV”, which protein production is on record?
Its protein production is “failed”.

For “MVMQQIKKIGNSFWYMTPVSETDRPILGMVVGQEKTLMIDAGNSEEHAQLFLEMLKEQNVSNPDFVALTHWHWDHIFGLPVLQDALSIAHSETKKEMRTLVSYEWTDEALDARVKEGTEIAFCADCIKKEFEEKARNINIIPPTLTFQNQMELDLGEVTCVLKHVGGDHAHDSVVIYVKEEKILFLGDCIYADIFSSKWNYTTKRTFALIDELEKFDAETYILSHGEAINREEFLQEIRMLKAVGTYTEAHKGDEEKIKAAYKQELDRELNEDELETITYFVNGYEMNNQ”, which protein production is on record?
Its protein production is “failed”.

For “MVNPIVVAAKQGQWQLVQEYLFAAASDQVNQRDERGLTVLMYAVASLEMTTVKQLLQAGADPNRSRPPHGITPLMLLAGLQSNPNNPEKNPVQQAIAAMLMEFGAEVNQGNDDGTTALMMAAYRNNLPLVETLLAGGARAKIQDQQGTTALEWAIKQQNLSMVRKLIEHHAPLDLSDGDGNLPLTLAIKTGDRVIVDYLLQAGAPWDQNGWFTAVEEGNVDQVKAFIQGGYPLTQAGDGGDTALHIACLEGYQSMVTILLEKGPKDMVNAVNQAGDTALHLAIAQGHVEIVTQLLNAGADGNFSSNGEPPLLTALTATHGNAQTQAVMVNALGRAGVDLDQTLWEGKTPLMLAAMANLAAVITTIANYSVQVNRGDPNGSTALMWACHRGHGAAVEALLTNFPALDLNLKNQGGQTALDLARLNHHGAIVALLESYISRSA”, which protein production is on record?
The protein production was “failed”.

Which protein production does the source give for “MVNRFVLEPKTVLEGEQEQKLKDSEAAVASLQTSKEYLEKQVAEVENNLRELLQQEPGIAQQIMSMSM” here?
Its protein production is “failed”.

For “MVPDPFRVGPWTSVREAARLMAQRRVGSLVVVEDGQVLGVVTSRDLRGAHPNRLVVDVLKGPPVAISPEASLLEAKRLMEAKGLERLLVMRDRKLLGILTQGTLAFALGQHFDPLTGLPRADLLRHHLESLLAQGKDPTLLFVDLDDFGRLNKENGHPFGDRVLKTLGQRLKGFAQDLGGEVYRYGGDEFALVFPHPRQALLPALPSLLSPLEVEGKRVGFSVGVAGGRRRQRRVSANPSATADDLLKLASLASTHAKRQGSGWAPAEALKAKEGAPEGVSSPKEPQSAWGDNRRAARGGGGPRSGGRGSGPTGP”, which protein production is on record?
The protein production was “failed”.

With “MVPDVFIEVSLVIFIAFFISLVMRMLKQPLIIGYILTGILVSPYFLNIVRFEESISTLGHYGVTILLFMVGISLNPGYFKEIGKISLITGLGQILFTFSIGFLISVFLGYSLIESMYISIALTFSSTIIIMKLISDKGDIDKLYGKISIGFLIVQDIVAMAILVLISAFNVQSGAGELLFLIISKIVLILTAIYIFTKYALSNFISYASKNQEFLFLFSLMWCFTLASLFHLLGFSSEIGALIAGIVLAIFPERYEIASKVRPLRDFFLILFFVVLGVQMTFETSGNFIIPAIILSIFVLFGNPIIVMILMGAFGYTKKTGFLAGLTVAQISEFSLIIASLGLRNGHISQEIVSMITLIGIMTIAGSSYFITYSERIYALLSNYLSIFEKKTKISEKDFKNKNTGEIILFGADRTGKNILNVIENSKERFLIIDYNPKIIKNLSKRGYNSVYGDASNLELLNELNFKESKMLISTISDIETDILLIKTILKSNKNAIIIVIAHKIEDAIKLYEEGASYVIMPHFLGSIHASLMIQKYGLNIEEFLKEKSNHIESLKKSQELFRHTK” as the sequence, how does the protein production read?
Its protein production is “failed”.
